The target in test [1] is human LIFR expressed on the surface of 293T cells (human) (UniProt P42702). Nature of the test: flow cytometry on HEK293T-huLIFR cells, median fluorescence, span of the fitted curve. For orientation: Flow cytometry measures light scatter and fluorescence of single cells or particles in a stream.
For test [2], the target named is human LIFR/gp130 heterodimer expressed on the surface of 293T cells (human) (UniProt P42702). Nature of the test: flow cytometry on HEK293T-huLIFR/gp130 cells, median fluorescence, span of the fitted curve.
Sequence of human LIFR/gp130 heterodimer expressed on the surface of 293T cells (human) (P42702 45-1097, chain 1 of 2): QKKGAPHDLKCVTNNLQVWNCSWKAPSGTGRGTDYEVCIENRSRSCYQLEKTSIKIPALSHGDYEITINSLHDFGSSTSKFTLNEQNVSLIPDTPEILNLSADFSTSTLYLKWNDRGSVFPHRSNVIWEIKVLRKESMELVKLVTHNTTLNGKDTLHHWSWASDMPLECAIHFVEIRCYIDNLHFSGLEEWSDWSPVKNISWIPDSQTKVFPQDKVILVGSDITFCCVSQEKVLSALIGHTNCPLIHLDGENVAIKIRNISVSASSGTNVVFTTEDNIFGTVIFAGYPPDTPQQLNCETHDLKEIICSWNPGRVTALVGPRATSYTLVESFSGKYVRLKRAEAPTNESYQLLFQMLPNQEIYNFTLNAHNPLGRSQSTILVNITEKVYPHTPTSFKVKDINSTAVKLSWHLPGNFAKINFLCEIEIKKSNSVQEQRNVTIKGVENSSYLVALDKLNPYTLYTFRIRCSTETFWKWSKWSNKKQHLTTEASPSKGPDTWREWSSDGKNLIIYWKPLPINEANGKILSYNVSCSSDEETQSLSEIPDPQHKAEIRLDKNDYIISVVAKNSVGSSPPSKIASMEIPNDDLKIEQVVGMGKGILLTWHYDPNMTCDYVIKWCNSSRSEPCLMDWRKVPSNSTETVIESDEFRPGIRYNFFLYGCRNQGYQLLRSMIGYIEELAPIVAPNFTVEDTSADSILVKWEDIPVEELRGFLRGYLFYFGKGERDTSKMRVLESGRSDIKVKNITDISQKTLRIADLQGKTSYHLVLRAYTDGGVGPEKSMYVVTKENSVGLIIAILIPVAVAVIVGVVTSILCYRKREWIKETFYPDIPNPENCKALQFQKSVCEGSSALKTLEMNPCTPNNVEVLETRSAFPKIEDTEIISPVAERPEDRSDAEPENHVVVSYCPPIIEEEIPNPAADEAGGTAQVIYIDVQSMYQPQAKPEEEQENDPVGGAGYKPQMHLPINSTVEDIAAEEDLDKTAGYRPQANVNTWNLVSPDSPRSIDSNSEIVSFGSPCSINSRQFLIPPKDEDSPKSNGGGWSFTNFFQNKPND
Sequence of human LIFR/gp130 heterodimer expressed on the surface of 293T cells (human) (P40189 23-918, chain 2 of 2, further chain): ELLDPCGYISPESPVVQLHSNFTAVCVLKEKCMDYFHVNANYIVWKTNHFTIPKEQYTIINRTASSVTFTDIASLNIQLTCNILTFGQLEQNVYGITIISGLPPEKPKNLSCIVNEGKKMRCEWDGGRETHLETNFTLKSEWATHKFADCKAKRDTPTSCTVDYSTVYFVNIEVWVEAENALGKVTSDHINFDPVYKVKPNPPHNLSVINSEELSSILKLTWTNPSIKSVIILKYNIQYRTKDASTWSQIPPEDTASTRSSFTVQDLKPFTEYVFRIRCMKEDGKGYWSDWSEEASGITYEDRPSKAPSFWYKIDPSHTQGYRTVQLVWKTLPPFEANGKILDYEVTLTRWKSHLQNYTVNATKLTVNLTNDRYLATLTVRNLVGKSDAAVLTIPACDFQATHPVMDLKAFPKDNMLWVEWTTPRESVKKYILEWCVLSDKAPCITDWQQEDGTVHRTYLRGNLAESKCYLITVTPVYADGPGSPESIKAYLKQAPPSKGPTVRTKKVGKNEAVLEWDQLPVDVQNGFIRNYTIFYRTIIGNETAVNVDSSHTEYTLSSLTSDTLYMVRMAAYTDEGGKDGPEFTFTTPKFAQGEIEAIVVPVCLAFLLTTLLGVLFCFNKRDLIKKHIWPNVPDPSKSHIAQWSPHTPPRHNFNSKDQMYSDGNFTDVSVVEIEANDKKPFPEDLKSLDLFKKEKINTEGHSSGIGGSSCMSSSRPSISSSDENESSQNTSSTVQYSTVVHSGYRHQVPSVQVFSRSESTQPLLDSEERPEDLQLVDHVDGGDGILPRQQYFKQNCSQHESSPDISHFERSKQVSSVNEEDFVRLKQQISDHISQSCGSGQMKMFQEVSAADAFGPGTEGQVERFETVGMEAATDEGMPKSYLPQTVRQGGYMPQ

Sequence of human LIFR expressed on the surface of 293T cells (human) (P42702 45-1097): as the sequence (P42702 45-1097, chain 1 of 2) above

For the substance hIgG1 (antibody), the Span was determined as 12 in test [1] and 90.1 in test [2].

(Values after patent US20250136702A1, “HUMAN LIFR ANTIGEN BINDING PROTEIN, PREPARATION METHOD THEREFOR, AND APPLICATION THEREOF” (NONA BIOSCIENCES (SUZHOU) CO., LTD., priority 2020, published 2025).)
